The record followed here is patent US12312411 (Takeda / Millennium, dated 2025).

The target in experiment [1] is recombinant human CD38 (purified, plate-coated) (human, UniProt P28907 43-300). Nature of the experiment: ELISA, plate-coated recombinant CD38, scFv-SLTA fusion titrated. (In general: In an ELISA, binding on a coated surface is turned into a signal by an enzyme label.)
The target in experiment [2] is recombinant cynomolgus monkey CD38 (purified, plate-coated) (cynomolgus, UniProt Q5VAN0 44-301). Briefly: ELISA, plate-coated recombinant cynomolgus CD38, scFv-SLTA fusion titrated.
Experiment [3] concerns the target cynomolgus CD38 on cells expressing recombinant cynomolgus CD38 (cynomolgus, UniProt Q5VAN0 1-301).
Experiment [4] concerns the target T1, human CD38 on human multiple myeloma MOLP-8 cells (human, UniProt P28907 1-300). Nature of the experiment: cell-based or functional assay.
Experiment [5] deals with T1, human CD38 on human multiple myeloma …. Nature of the experiment: flow cytometry titration of IgG1 on MOLP-8 cells, nonlinear fit.
Experiment [6] has the same target. Nature of the experiment: flow cytometry, IgG1 at 100 nM on MOLP-8 cells, MFI over secondary-only control. Background: Flow cytometry measures light scatter and fluorescence of single cells or particles in a stream.

In general, Kd refers to the free concentration of one partner at which half of the binding sites on the other are occupied at equilibrium, for simple one-to-one binding.

Residue numbers refer to the chain shown, from its start.

B1: CD38 targeting reference molecule #1 (CD38TR1) scFv fused to Shiga toxin A subunit (CD38TR1-SLTA) (scFv)
chain: MKEFTLDFSTAKTYVDSLNVIRSAIGTPLQTISSGGTSLLMIDSGSGDNLFAVDVRGIDPEEGRFNNLRLIVERNNLYVTGFVNRTNNVFYRFADFSHVTFPGTTAVTLSGDSSYTTLQRVAGISRTGMQINRHSLTTSYLDLMSHSGTSLTQSVARAMLRFVTVTAEALRFRQIQRGFRTTLDDLSGRSYVMTAEDVDLTLNWGRLSSVLPDYHGQDSVRVGRISFGSINAILGSVALILNCHHHASAVAAEFPKPSTPPGSSGGAPDIQMTQSPSSLSASVGDRVTITCKASEDIYNRLTWYQQKPGKAPKLLISGATSLETGVPSRFSGSGSGTDFTFTISSLQPEDIATYYCQQYWSNPYTFGQGTKVEIKGGGGSQVQLQESGPGLVRPSQTLSLTCTVSGFSLTSYGVHWVRQPPGRGLEWIGVMWRGGSTDYNAAFMSRLNITKDNSKNQVSLRLSSVTAADTAVYYCAKSMITTGFVMDSWGQGSLVTVSS
With B1, in experiment [1], the Kd turned out to be 7.7 ng/mL. Moreover, in experiment [2], the binding result is recorded as “no binding”.

B2: CD38TM3 formatted into human IgG1 (antibody, V domains shown)
VH: QVQLVQSGAEVKKPGESLKISCKGSGYSFTSYWIGWVRQMPGKGLEWMGIIYPGDSDTRYSPSFQGQVTISADKSISTAYLQWSSLKASDTAMYYCARGPSTGFWSGNYFDYWGQGTLVTVSS
VL: QTVVTQEPSLTVSPGETVTLTCASSTGAVTSGFYPNWFQQKPGQAPRALIYATNNKYSWTPARFSGSLLGDKAALTLSRVQPEDEADYYCLVYYDGAWVFGGGTKLTVLG
In the case of B2, the “FOB (fold-over-background of MFI)” value in experiment [3] turned out to be 528 fold over background.

B3: CD38TM5 formatted into human IgG1 (antibody, V domains shown)
VH: EVQLLESGGGLVQPGGSLRLSCAASGFTFSDYYMNWIRQAPGKGLEWVSSISSSSSYIYYADSVKGRFTISRDNSKNTLYLQMNSLRAEDTAVYYCATEGPYYLYGFDIWGQGTLVTVSS
VL: QSVLTQPPSASGTPGQRVTISCSGSSSNIGSNYVYWYQQLPGTAPKLLIYGNSNRPSGVPDRFSGSKSGTSASLAISGLRSEDEADYYCQSYDNTLSGVIFGGGTKLTVLG
Consider B3, for which the “FOB (fold-over-background of MFI)” value in experiment [3] was found to be 104 fold over background; in experiment [6], 550 fold over background. The “% ADCC (mean)” value in experiment [4] was determined as 35.2%. In addition, the “% CDC (mean)” value in experiment [4] worked out at 4.7%. Further, in experiment [5], binding was put at a Kd of 0.034 µM.

B4: CD38TM2 formatted into human IgG1 (antibody, V domains shown)
VH: EVQLLESGGGLVQPGGSLRLSCAASGFTFSSYWMHWVRQAPGKGLEWVSAISGSGGGTFYADSVKGRFTISRDNSKNTLYLQMNSLRAEDTAVYYCAREGETSFGLDVWGQGTLVTVSS
VL: B3 VL with S31G, G51R, S53N, N54Q, N94S, T95S, G98V, V99S, I100V
For B4, the “FOB (fold-over-background of MFI)” value in experiment [3] is 272 fold over background.

B5: CD38TM6 formatted into human IgG1 (antibody, V domains shown)
VH: EVQLLESGGGLVQPGGSLRLSCAASGFTFDDYGMTWVRQAPGKGLEWVSGINWNGGSTGYADSVKGRFTISRDNSKNTLYLQMNSLRAEDTAVYYCARGGLFHDSSGYYFGHWGQGTLVTVSS
VL: QSVLTQPPSASGTPGQRVTISCSGSSSNIGNSYVSWYQQLPGTAPKLLIYRNNQRPSGVPDRFSGSKSGTSASLAISGLRSEDEADYYCSAWDDNLSVLFGGGTKLTVL
On to B5, for which the “FOB (fold-over-background of MFI)” value in experiment [3] worked out at 176 fold over background. Moreover, in experiment [4], the “% ADCC (mean)” value came out at 50.4% and the “% CDC (mean)” value turned out to be 34.3%. The same molecule came in with a Kd in experiment [5] of 0.0046 µM. In addition, the “FOB (fold-over-background of MFI)” value in experiment [6] turned out to be 104 fold over background.

B6: CD38TM1 formatted into human IgG1 (antibody, V domains shown)
VH: EVQLLESGGGLVQPGGSLRLSCAASGFTFSDYYMSWVRQAPGKGLEWVSAISGSGGSTYYADSVKGRFTISRDNSKNTLYLQMNSLRAEDTAVYYCAREHSNYFYGMDVWGQGTLVTVSS
VL: QSVLTQPPSASGTPGQRVTISCSGSSSNIGSNYVYWYQQLPGTAPKLLIYGNSNRPSGVPDRFSGSKSGTSASLAISGLRSEDEADYYCQSYDSSLSGSGVFGGGTKLTVLG
Consider B6, for which, in experiment [4], the “% ADCC (mean)” value was 29% and the “% CDC (mean)” value turned out to be 15%. For the same molecule, the affinity in experiment [5], expressed as Kd, was 0.032 µM.
